Reference: the supplement of paper PMC10567573
± gives the standard deviation.

Assay: protein stability index of a GFP-peptide fusion (GPS, HEK-293T) (PSI 1-6); higher = more stable
[1] = treatment: DMSO, c terminus: a fixed tail appended
[2] = treatment: MLN4924 1 uM, 8 h, c terminus: a fixed tail appended
[3] = treatment: DMSO, c terminus: native
[4] = treatment: MLN4924 1 uM, 8 h, c terminus: native
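Note: 24-mer peptide tiles fused after GFP, lentivirally expressed, FACS-sorted into six equal bins by GFP/DsRed ratio, decoded by Illumina sequencing, PSI is the read-weighted mean bin number.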

Row | Sequence | protein stability index [1] | protein stability index [2] | protein stability index [3] | protein stability index [4]
1 | EASERFAAGYIQCMHEVHTFVSTC [HES6] | 2.21 ± 0.23 | 2 ± 0.36 |  | 
2 | TLCAMLPLLLFTYLNSFLHQRIPQ [SLC29A1] | 3.18 ± 0.14 | 3.06 ± 0.17 |  | 
3 | ENAQKKRFNQVLKNLLHAEFLRVQ [VPS39] | 2.73 ± 0.43 | 2.29 ± 0.39 |  | 
4 | FETHESDINSVRYYPSGDAFASGS [GNB5] | 3.9 ± 0.25 | 3.94 ± 0.16 |  | 
5 | EVRLVQKKDTGHIYAMKILRKSDM [STK38L] | 2.65 ± 0.22 | 2.45 ± 0.29 |  | 
6 | GRNFILFIIFGTMEEMQNKAVVFF [HACD3] | 2.94 ± 1.4 | 2.36 ± 1.2 |  | 
7 | ESHKAKNESWIKSHFSRLSEEKLA [C10orf62] | 3.81 ± 0.17 | 3.86 ± 0.35 |  | 
8 | LVDFCNKPILLHQVEALAAAGVDH [GMPPB] | 2.65 ± 0.31 | 2.95 ± 0.35 |  | 
9 | IKLFACYNDGVINLLEKFFEMKKG [SNAP91] | 2.39 ± 0.57 | 2.48 ± 0.37 |  | 
10 | TSSGLATASFRTSKYLLEEWFQNC [TEKT4] | 2.68 ± 0.21 | 2.7 ± 0.14 |  | 
11 | GNAHYQRADFVLAANSYDLAIKAI [FKBP8] | 2.5 ± 0.079 | 2.43 ± 0.33 |  | 
12 | GTPGTPSYPRTPHTPGTPKSAILV [MAP2] | 3.1 ± 0.12 | 3.24 ± 0.35 |  | 
13 | GSLILPPGPGGTMKRHSSRDAAGK [FCHO1] | 4.68 ± 0.2 | 4.56 ± 0.2 |  | 
14 | IGIEAKNLASYDVCSILLGTSTLL [MCOLN1] | 2.84 ± 0.7 | 2.92 ± 0.66 |  | 
15 | QRFGEALQDQEKAWGFPENATAPR [ELOA2] | 4.78 ± 0.23 | 4.68 ± 0.46 |  | 
16 | WRTWMTITQSWQVSVRVQPRGRAH [C22orf15] | 2.38 ± 0.64 | 3.05 ± 0.39 |  | 
17 | VPWNQVGMRDADYIAAFLHVLLPV [HDAC6] |  | 2.07 ± 1.5 |  | 
18 | FVLSLVKKHYRLQFYMFGWTHVTL [CDS2] | 2.99 ± 0.57 | 2.99 ± 0.67 |  | 
19 | ELQGLDYCKPTRLDLLLDMPPVSY [SPSB1] | 2.31 ± 0.14 | 2.38 ± 0.11 |  | 
20 | GEAAAGGAAEEARRLEQRWGFGLE [ACBD3] | 4.49 ± 0.38 | 4.43 ± 0.38 |  | 
21 | PIIVVPDPPSSSEECPAHLLEDPL [RHOBTB2] | 5.2 ± 0.1 | 4.81 ± 0.3 |  | 
22 | SLLPGAVEQPQPQFISRFLEGQSG [NEK8] | 3.5 ± 0.18 | 3.73 ± 0.16 |  | 

Row | Sequence | protein stability index [1] | protein stability index [2] | protein stability index [3] | protein stability index [4]
23 | DRDREEEENRLREELRQEWEAKQE [FAM50A] | 5.45 ± 0.5 | 5.63 ± 0.16 |  | 
24 | RLLGTAGTEEKKKLIRDFDEKQQE [VTI1B] | 5.06 ± 0.15 | 5.11 ± 0.33 |  | 
25 | ASSGSNSSASSEQGLLGRSPPTRP [SPRY1] | 5.19 ± 0.34 | 5.38 ± 0.2 |  | 
26 | ARAFAQRYLADLLPSVFGSLRDSG [RSPH3] | 2.29 ± 0.41 | 2.25 ± 0.28 |  | 
27 | HVPNPPSGISFPSVVDHPMPEERA [HESX1] | 3.48 ± 0.74 | 3.99 ± 0.52 |  | 
28 | CIDIVIRHVAPIPSHYDVQDRFRI [MOSPD3] | 2.77 ± 0.61 | 2.93 ± 0.55 |  | 
29 | QQRLAHLEDKLRLLAQARDEAQGA [LRRC45] | 4.29 ± 0.28 | 4.37 ± 0.36 |  | 
30 | DEKEQLIIPQVPLFNILAKFNGIT [USP39] | 2.54 ± 0.3 | 2.57 ± 0.31 |  | 
31 | SFSRPADLDLIQSTPFKPLALKTP [MFF] | 3.19 ± 0.46 | 3.5 ± 0.048 |  | 
32 | SNKKMLLLVGGLPPGPDRLPSNLV [KLHL14] | 2.17 ± 0.19 | 2.34 ± 0.22 |  | 
33 | AHSAAVTASGDCYTFGSNQHGQLG [NEK8] | 3.81 ± 0.2 | 3.94 ± 0.35 |  | 
34 | VDQMNRIVEVLGIPPAAMLDQAPK [DYRK1B] | 3.62 ± 0.25 | 3.52 ± 0.15 |  | 
35 | GWCSGDAISSVERYDPQTNEWRMV [KLHL20] | 2.84 ± 0.24 | 2.95 ± 0.34 |  | 
36 | DCARRILAREGVAAFYKGYVPNML [SLC25A25] | 2.12 ± 0.11 | 2.11 ± 0.29 |  | 
37 | RLFEDVRSWMFRRGPLNSDRSDYF [TRIM43] | 2.54 ± 0.42 | 2.63 ± 0.13 |  | 
38 | KALNLLPANTQINDIRIFLEKVLE [VPS39] | 2.11 ± 0.41 | 2.04 ± 0.29 |  | 
39 | GLPLAASMQEDEQSGRDLQQYQSQ [SEC22B] | 5.34 ± 0.24 | 5.43 ± 0.3 |  | 
40 | IMIIICCVILGIVIASTVGGIFA [STX1A] |  |  | 3.62 ± 0.33 | 3.79 ± 0.14
41 | GRAVEHAMFLGDAAAHWYGGAEMR [MYORG] | 2.87 ± 0.34 | 3.14 ± 0.27 |  | 
42 | TLRLRENCVLSSSPNPFPEISRGE [ZNF8] | 3.61 ± 0.33 | 3.66 ± 0.33 |  | 
43 | SFLQNAVLAYVQASPVRTLSPPK [LRRC45] |  |  | 2.3 ± 0.32 | 2.1 ± 0.18
44 | VVGDNAVGKTRLICARACNATLTQ [RHOBTB2] | 2.63 ± 0.17 | 2.67 ± 0.14 |  | 
